Each block holds one substance with its values, some of them ahead of it.
Key:
PBRM1 (human) = PBRM1 (human) (UniProt Q86U86); assay: HA-bait purification from HEK-293T nuclear extract, mass spectrometry, peptide count
BCL7C (human) [1] = biological target: BCL7C (human) (UniProt Q8WUZ0); assay: as above
SMARCA2 (human) [2] = biological target: SMARCA2 (human) (UniProt P51531); assay: as above
SMARCB1 (human) [3] = biological target: SMARCB1 (human) (UniProt Q12824); assay: as above
BCL7B (human) = BCL7B (human) (UniProt Q9BQE9); assay: as above
SMARCD2 (human) [4] = biological target: SMARCD2 (human) (UniProt Q92925); assay: as above
PHF10 (human) = PHF10 (human) (UniProt Q8WUB8); assay: as above
BCL7A (human) [5] = biological target: BCL7A (human) (UniProt Q4VC05); assay: as above
SMARCD3 (human) [6] = biological target: SMARCD3 (human) (UniProt Q6STE5); assay: as above
SMARCC1 (human) [7] = biological target: SMARCC1 (human) (UniProt Q92922); assay: as above
SMARCE1 (human) [8] = biological target: SMARCE1 (human) (UniProt Q969G3); assay: as above
DPF2 (human) = DPF2 (human) (UniProt Q92785); assay: as above
ARID2 (human) = ARID2 (human) (UniProt Q68CP9); assay: as above
SMARCA4 (human) [9] = biological target: SMARCA4 (human) (UniProt P51532); assay: as above
SMARCC2 (human) [10] = biological target: SMARCC2 (human) (UniProt Q8TAQ2); assay: as above
ACTL6B (human) = ACTL6B (human) (UniProt O94805); assay: as above
ACTL6A (human) [11] = biological target: ACTL6A (human) (UniProt O96019); assay: as above
GLTSCR1L (human) = GLTSCR1L (human) (UniProt Q6AI39); assay: as above
SS18 (human) [12] = biological target: SS18 (human) (UniProt Q15532); assay: as above
SMARCD1 (human) [13] = biological target: SMARCD1 (human) (UniProt Q96GM5); assay: as above
GLTSCR1 (human) = GLTSCR1 (human) (UniProt Q9NZM4); assay: as above
BCL7C (human) [14] = biological target: BCL7C (human) (UniProt Q8WUZ0); assay: HA-bait purification from HEK-293T nuclear extract, glycerol gradient fractions 13-14, mass spectrometry, peptide count
SMARCA2 (human) [15] = biological target: SMARCA2 (human) (UniProt P51531); assay: as above
SMARCB1 (human) [16] = biological target: SMARCB1 (human) (UniProt Q12824); assay: as above
SMARCD2 (human) [17] = biological target: SMARCD2 (human) (UniProt Q92925); assay: as above
BCL7A (human) [18] = biological target: BCL7A (human) (UniProt Q4VC05); assay: as above
SMARCD3 (human) [19] = biological target: SMARCD3 (human) (UniProt Q6STE5); assay: as above
ARID1B (human) = ARID1B (human) (UniProt Q8NFD5); assay: as above
SMARCC1 (human) [20] = biological target: SMARCC1 (human) (UniProt Q92922); assay: as above
SMARCE1 (human) [21] = biological target: SMARCE1 (human) (UniProt Q969G3); assay: as above
ARID1A (human) = ARID1A (human) (UniProt O14497); assay: as above
SS18L1 (human) = SS18L1 (human) (UniProt O75177); assay: as above
SS18 (human) [22] = biological target: SS18 (human) (UniProt Q15532); assay: as above
SMARCA4 (human) [23] = biological target: SMARCA4 (human) (UniProt P51532); assay: as above
SMARCD1 (human) [24] = biological target: SMARCD1 (human) (UniProt Q96GM5); assay: as above
SMARCC2 (human) [25] = biological target: SMARCC2 (human) (UniProt Q8TAQ2); assay: as above
ACTL6A (human) [26] = biological target: ACTL6A (human) (UniProt O96019); assay: as above

SMARCA2 (human), sequence (P51531 whole entry): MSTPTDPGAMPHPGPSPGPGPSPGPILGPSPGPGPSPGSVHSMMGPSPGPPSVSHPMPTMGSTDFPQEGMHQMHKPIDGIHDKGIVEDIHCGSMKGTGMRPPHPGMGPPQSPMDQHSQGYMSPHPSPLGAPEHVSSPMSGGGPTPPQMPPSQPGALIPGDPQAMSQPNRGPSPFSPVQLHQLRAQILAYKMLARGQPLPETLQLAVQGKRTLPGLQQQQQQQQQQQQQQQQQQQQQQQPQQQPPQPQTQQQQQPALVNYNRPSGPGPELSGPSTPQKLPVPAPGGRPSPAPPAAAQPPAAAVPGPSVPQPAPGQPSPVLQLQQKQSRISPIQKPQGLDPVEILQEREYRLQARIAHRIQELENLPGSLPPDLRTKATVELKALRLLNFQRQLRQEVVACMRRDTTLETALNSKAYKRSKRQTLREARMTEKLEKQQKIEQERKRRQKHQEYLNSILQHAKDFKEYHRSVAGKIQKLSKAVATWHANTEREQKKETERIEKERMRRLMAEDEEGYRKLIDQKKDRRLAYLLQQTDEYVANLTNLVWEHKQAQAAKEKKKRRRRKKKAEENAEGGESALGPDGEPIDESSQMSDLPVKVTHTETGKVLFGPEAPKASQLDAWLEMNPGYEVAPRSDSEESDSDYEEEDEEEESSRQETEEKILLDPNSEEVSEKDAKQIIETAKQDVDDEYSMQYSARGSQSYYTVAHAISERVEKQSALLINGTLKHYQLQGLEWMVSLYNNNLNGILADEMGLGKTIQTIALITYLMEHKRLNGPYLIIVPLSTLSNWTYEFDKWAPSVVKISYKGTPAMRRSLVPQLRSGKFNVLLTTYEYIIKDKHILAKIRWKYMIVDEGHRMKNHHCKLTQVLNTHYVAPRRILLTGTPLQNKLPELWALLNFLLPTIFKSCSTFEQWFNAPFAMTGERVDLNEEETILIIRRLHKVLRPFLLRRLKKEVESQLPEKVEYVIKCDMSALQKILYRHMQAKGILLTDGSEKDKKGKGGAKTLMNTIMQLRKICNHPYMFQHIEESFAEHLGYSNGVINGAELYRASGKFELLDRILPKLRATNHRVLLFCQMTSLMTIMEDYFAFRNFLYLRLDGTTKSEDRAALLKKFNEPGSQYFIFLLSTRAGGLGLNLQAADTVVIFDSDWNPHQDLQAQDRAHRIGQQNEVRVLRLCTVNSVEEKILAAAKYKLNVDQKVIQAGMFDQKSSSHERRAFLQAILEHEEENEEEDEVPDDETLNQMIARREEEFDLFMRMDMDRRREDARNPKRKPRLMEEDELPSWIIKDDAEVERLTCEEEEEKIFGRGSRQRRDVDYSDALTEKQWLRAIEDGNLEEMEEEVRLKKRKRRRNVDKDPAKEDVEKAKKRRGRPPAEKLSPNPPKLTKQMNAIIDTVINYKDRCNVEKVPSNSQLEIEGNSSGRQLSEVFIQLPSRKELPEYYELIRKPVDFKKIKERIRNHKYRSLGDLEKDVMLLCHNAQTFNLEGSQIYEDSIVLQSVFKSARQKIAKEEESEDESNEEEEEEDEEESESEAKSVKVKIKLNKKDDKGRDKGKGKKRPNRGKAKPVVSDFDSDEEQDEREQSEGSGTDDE
BCL7A (human), sequence (Q4VC05 whole entry): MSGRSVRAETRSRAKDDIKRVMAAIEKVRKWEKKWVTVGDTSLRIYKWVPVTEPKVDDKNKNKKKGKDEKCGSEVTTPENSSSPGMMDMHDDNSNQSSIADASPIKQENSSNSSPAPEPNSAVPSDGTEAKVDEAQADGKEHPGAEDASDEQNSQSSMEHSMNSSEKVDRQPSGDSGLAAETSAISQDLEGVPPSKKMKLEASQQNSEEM
SMARCC1 (human), sequence (Q92922 other isoform, or with tags, fused parts or gaps limits assumed): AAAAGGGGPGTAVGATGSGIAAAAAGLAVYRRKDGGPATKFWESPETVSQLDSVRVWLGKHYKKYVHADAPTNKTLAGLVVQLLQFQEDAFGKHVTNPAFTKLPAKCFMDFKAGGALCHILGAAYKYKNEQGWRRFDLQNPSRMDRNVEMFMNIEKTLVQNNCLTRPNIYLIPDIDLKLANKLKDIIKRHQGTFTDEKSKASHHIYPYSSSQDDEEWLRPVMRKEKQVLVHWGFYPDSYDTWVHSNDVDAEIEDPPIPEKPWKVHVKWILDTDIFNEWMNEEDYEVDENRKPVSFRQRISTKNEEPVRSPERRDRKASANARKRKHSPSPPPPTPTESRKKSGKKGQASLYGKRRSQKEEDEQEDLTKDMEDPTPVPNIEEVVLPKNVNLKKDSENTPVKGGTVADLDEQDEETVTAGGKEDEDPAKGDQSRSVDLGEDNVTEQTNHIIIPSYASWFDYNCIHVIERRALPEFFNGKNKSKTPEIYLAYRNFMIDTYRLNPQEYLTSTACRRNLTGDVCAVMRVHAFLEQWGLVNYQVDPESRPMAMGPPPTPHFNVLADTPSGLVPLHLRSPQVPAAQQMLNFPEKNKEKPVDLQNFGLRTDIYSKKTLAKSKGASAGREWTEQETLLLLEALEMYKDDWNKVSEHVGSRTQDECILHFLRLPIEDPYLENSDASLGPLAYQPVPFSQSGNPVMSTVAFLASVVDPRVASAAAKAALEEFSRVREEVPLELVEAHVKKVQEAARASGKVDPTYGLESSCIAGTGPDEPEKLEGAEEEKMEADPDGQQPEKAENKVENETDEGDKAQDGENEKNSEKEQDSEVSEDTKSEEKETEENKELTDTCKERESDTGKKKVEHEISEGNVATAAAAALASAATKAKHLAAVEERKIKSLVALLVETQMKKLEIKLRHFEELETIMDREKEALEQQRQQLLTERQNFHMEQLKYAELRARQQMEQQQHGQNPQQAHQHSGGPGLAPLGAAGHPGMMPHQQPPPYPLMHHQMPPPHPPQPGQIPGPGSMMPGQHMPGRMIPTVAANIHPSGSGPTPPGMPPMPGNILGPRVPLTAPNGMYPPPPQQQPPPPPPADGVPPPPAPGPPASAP
ACTL6A (human), sequence (O96019 2-429 limits assumed): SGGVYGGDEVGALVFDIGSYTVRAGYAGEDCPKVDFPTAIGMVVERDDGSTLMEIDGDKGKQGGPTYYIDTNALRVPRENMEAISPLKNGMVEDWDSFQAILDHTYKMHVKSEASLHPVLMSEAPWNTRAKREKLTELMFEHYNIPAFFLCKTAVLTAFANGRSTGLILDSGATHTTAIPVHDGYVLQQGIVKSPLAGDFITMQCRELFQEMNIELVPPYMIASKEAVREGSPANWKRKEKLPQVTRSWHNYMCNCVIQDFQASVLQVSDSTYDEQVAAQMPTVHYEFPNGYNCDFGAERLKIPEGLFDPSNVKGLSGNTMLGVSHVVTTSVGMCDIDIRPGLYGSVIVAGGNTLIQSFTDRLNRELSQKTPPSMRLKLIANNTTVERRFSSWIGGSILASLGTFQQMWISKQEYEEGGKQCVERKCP
SMARCD3 (human), sequence (Q6STE5 2-483 limits assumed): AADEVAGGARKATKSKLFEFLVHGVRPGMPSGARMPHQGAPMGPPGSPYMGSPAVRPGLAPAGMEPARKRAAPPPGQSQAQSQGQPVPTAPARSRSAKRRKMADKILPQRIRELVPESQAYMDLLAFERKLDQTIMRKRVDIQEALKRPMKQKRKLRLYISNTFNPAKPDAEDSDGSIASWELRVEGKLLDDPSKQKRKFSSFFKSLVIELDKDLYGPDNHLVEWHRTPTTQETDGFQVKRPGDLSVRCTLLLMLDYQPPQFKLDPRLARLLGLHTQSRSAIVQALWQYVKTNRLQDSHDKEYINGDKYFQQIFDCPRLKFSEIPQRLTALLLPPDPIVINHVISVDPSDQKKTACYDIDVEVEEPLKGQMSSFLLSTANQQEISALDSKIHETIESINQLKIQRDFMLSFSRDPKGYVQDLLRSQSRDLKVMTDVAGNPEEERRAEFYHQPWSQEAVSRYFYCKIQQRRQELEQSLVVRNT
SS18 (human), sequence (Q15532 2-418 limits assumed): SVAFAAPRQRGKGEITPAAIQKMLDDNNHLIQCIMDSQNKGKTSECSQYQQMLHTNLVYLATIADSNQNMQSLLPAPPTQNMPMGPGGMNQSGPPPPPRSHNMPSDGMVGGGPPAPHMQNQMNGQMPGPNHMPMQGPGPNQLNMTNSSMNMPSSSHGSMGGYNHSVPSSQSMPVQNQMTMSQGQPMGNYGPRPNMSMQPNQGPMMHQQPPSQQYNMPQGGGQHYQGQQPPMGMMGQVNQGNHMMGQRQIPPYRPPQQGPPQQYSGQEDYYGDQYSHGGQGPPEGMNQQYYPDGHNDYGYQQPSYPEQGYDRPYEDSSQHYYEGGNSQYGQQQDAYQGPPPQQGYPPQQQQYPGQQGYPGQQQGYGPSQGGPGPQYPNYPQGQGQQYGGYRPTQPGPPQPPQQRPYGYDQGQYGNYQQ
SMARCD2 (human), sequence (Q92925 whole entry): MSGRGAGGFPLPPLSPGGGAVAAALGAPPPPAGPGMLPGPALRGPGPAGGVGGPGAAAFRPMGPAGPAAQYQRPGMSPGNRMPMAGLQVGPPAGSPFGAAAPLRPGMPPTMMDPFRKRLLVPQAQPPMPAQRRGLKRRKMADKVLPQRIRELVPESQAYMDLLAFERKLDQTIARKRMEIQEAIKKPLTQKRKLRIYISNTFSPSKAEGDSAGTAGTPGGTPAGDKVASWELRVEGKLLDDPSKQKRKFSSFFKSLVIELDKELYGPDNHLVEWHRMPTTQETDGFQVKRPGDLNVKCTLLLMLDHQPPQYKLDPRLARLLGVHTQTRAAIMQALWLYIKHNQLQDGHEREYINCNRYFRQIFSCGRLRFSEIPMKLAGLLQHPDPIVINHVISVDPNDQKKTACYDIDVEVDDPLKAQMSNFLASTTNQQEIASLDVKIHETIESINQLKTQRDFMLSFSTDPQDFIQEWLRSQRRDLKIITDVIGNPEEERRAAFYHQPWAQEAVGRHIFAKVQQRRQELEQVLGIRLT
BCL7B (human), sequence (Q9BQE9 whole entry): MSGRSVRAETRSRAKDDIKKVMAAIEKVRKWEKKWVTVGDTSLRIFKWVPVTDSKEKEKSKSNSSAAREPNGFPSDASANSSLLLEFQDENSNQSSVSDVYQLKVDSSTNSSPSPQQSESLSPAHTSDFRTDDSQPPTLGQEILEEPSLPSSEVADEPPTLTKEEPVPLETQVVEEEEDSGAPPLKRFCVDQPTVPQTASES

- Total (PBRM1 (human)): 404 peptides
- Unique (PBRM1 (human)): 147 peptides
- Total (BCL7C (human) [1]): 17 peptides
- Unique (BCL7C (human) [1]): 10 peptides
- Total (SMARCA2 (human) [2]): 146 peptides
- Unique (SMARCA2 (human) [2]): 85 peptides
- Total (SMARCB1 (human) [3]): 59 peptides
- Unique (SMARCB1 (human) [3]): 26 peptides
- Total (BCL7B (human)): 4 peptides
- Unique (BCL7B (human)): 3 peptides
- Total (SMARCD2 (human) [4]): 59 peptides
- Unique (SMARCD2 (human) [4]): 34 peptides
- Total (PHF10 (human)): 58 peptides
- Unique (PHF10 (human)): 31 peptides
- Total (BCL7A (human) [5]): 36 peptides
- Unique (BCL7A (human) [5]): 21 peptides
- Total (SMARCD3 (human) [6]): 23 peptides
- Unique (SMARCD3 (human) [6]): 20 peptides
- Total (SMARCC1 (human) [7]): 203 peptides
- Unique (SMARCC1 (human) [7]): 83 peptides
- Total (SMARCE1 (human) [8]): 81 peptides
- Unique (SMARCE1 (human) [8]): 40 peptides
- Total (DPF2 (human)): 1 peptides
- Unique (DPF2 (human)): 1 peptides
- Total (ARID2 (human)): 157 peptides
- Unique (ARID2 (human)): 67 peptides
- Total (SMARCA4 (human) [9]): 107 peptides
- Unique (SMARCA4 (human) [9]): 53 peptides
- Total (SMARCC2 (human) [10]): 136 peptides
- Unique (SMARCC2 (human) [10]): 64 peptides
- Total (ACTL6B (human)): 1 peptides
- Unique (ACTL6B (human)): 1 peptides
- Total (ACTL6A (human) [11]): 44 peptides
- Unique (ACTL6A (human) [11]): 28 peptides
Substance: HA-BRD7 (from UniProt Q9NPI1 1-651)

- Total (BCL7C (human) [1]): 3 peptides
- Unique (BCL7C (human) [1]): 3 peptides
- Total (SMARCA2 (human) [2]): 49 peptides
- Unique (SMARCA2 (human) [2]): 27 peptides
- Total (BCL7A (human) [5]): 6 peptides
- Unique (BCL7A (human) [5]): 5 peptides
- Total (GLTSCR1L (human)): 16 peptides
- Unique (GLTSCR1L (human)): 14 peptides
- Total (SMARCC1 (human) [7]): 53 peptides
- Unique (SMARCC1 (human) [7]): 36 peptides
- Total (SS18 (human) [12]): 1 peptides
- Unique (SS18 (human) [12]): 1 peptides
- Total (SMARCA4 (human) [9]): 31 peptides
- Unique (SMARCA4 (human) [9]): 20 peptides
- Total (SMARCD1 (human) [13]): 33 peptides
- Unique (SMARCD1 (human) [13]): 22 peptides
- Total (GLTSCR1 (human)): 62 peptides
- Unique (GLTSCR1 (human)): 33 peptides
- Unique (ACTL6A (human) [11]): 10 peptides
Substance: HA-BRD9 (from UniProt Q9H8M2 1-597)

- Total (BCL7C (human) [14]): 13 peptides
- Unique (BCL7C (human) [14]): 7 peptides
- Total (SMARCA2 (human) [15]): 130 peptides
- Unique (SMARCA2 (human) [15]): 74 peptides
- Total (SMARCB1 (human) [16]): 62 peptides
- Unique (SMARCB1 (human) [16]): 22 peptides
- Total (SMARCD2 (human) [17]): 51 peptides
- Unique (SMARCD2 (human) [17]): 32 peptides
- Total (BCL7A (human) [18]): 36 peptides
- Total (SMARCD3 (human) [19]): 23 peptides
- Unique (SMARCD3 (human) [19]): 20 peptides
- Total (ARID1B (human)): 147 peptides
- Unique (ARID1B (human)): 85 peptides
- Total (SMARCC1 (human) [20]): 359 peptides
- Unique (SMARCC1 (human) [20]): 87 peptides
- Total (SMARCE1 (human) [21]): 118 peptides
- Unique (SMARCE1 (human) [21]): 40 peptides
- Total (ARID1A (human)): 311 peptides
- Unique (ARID1A (human)): 114 peptides
- Total (SS18L1 (human)): 3 peptides
- Unique (SS18L1 (human)): 2 peptides
- Total (SS18 (human) [22]): 2 peptides
- Unique (SS18 (human) [22]): 2 peptides
- Total (SMARCA4 (human) [23]): 88 peptides
- Unique (SMARCA4 (human) [23]): 47 peptides
- Total (SMARCD1 (human) [24]): 83 peptides
- Unique (SMARCD1 (human) [24]): 37 peptides
- Total (SMARCC2 (human) [25]): 105 peptides
- Unique (SMARCC2 (human) [25]): 52 peptides
- Total (ACTL6A (human) [26]): 61 peptides
- Unique (ACTL6A (human) [26]): 23 peptides
Substance: HA-DPF2 (from UniProt Q92785 1-391)
